Experimental data taken from publication PMC12578645.

Target: gB-Ecto.H516P (HSV-1 glycoprotein B ectodomain with H516P and an appended foldon; postfusion) (HSV-1 KOS strain) (UniProt P06437)
Test: cryo-EM structure

For “gB-Ecto.H516P (HSV-1 glycoprotein B ectodomain with H516P and an appended foldon; postfusion) (from UniProt P06437 31-728) (domain or fragment)”, the stoichiometry N was 3.
